Measurements as given in patent US12129294B2, “Methods of treatment of diseases in which IL-13 activity is detrimental using anti-IL-13 antibodies” (AbbVie Inc., priority 2016, dated 2024).

Legend:
[1] = biological target: human type IL-13 (Homo sapiens, UniProt P35225, Q144R); details: see US patent pub. No. 2014/0341913; cited from earlier work
[2] = test system: subjects with symptomatic eosinophilic esophagitis (EoE); assay: Phase 2 study in EoE patients: subject's global assessment of disease severity; format: in vivo, human; details: for subject's global assessment of disease severity, Mean change / subject's global assessment of disease severity, LSMD versus placebo: Change to Week 16; for subject's global assessment of disease severity, LSMD versus placebo: ANCOVA
Protocol: North America and Switzerland. […] Safety was monitored throughout the study. […] The study was powered for the primary endpoint. […] Still further, the effectiveness of RPC4046 (over placebo) in lowering a subject's global assessment of disease severity at week 16 was analyzed.

[3] = test system: subjects with symptomatic eosinophilic esophagitis (EoE); assay: Phase 2 study in EoE patients: EEsAI PRO score; format: in vivo, human; design: EEsAI PRO score, Mean / EEsAI PRO score, Median: scale not given here; details: for EEsAI PRO score, Mean change / EEsAI PRO score, LSMD versus placebo: Change to Week 16
Protocol: Additionally, a comparison of the mean EEsAI PRO scores at baseline and at week 16 between the placebo group and the treatment group was conducted.

human type IL-13, sequence (P35225 15-146 Q144R limits assumed): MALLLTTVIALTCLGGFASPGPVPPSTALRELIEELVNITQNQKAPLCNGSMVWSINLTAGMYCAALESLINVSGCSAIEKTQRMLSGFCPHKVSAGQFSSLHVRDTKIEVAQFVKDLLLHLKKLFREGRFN

B1: RPC4046: recombinant humanized, high-affinity, selective anti-IL-13 monoclonal antibody; heavy chain variable region SEQ ID NO: 2, light chain variable region SEQ ID NO: 3 (antibody, V domains shown)
VH: EVTLRESGPGLVKPTQTLTLTCTLYGFSLSTSDMGVDWIRQPPGKGLEWLAHIWWDDVKRYNPALKSRLTISKDTSKNQVVLKLTSVDPVDTATYYCARTVSSGYIYYAMDYWGQGTLVTVSS
VL: DIQMTQSPSSLSASVGDRVTISCRASQDIRNYLNWYQQKPGKAPKLLIFYTSKLHSGVPSRFSGSGSGTDYTLTISSLQPEDIATYYCQQGNTLPLTFGGGTKVEIK
- binding affinity to helices A and D of interleukin 13 (IL-13) [1]: binds with great affinity
- subject's global assessment of disease severity, Mean ([2]; 180 mg, Baseline): 5.0
- subject's global assessment of disease severity, Median ([2]; 180 mg, Baseline): 5.0
- subject's global assessment of disease severity, Mean change ([2]; 180 mg): −2.0
- subject's global assessment of disease severity, LSMD versus placebo ([2]; 180 mg): −0.9
- subject's global assessment of disease severity, Mean ([2]; 180 mg, Week 16): 2.8
- subject's global assessment of disease severity, Median ([2]; 180 mg, Week 16): 3.0
- subject's global assessment of disease severity, Mean ([2]; 360 mg, Baseline): 5.4
- subject's global assessment of disease severity, Median ([2]; 360 mg, Baseline): 5.0
- subject's global assessment of disease severity, Mean change ([2]; 360 mg): −2.8
- subject's global assessment of disease severity, LSMD versus placebo ([2]; 360 mg): −1.3
- subject's global assessment of disease severity, Mean ([2]; 360 mg, Week 16): 2.5
- subject's global assessment of disease severity, Median ([2]; 360 mg, Week 16): 2.0
- subject's global assessment of disease severity at week 16 over placebo ([2]; treatment arm, 180 mg and 360 mg, week 16): dose-dependent reduction
- mean EEsAI PRO at week 16 ([3]; 180 mg and 360 mg, week 16): dose-dependent reduction
- EEsAI PRO score, Mean ([3]; 180 mg, Baseline): 58.1
- EEsAI PRO score, Median ([3]; 180 mg, Baseline): 61.0
- EEsAI PRO score, Mean change ([3]; 180 mg): −19.8
- EEsAI PRO score, LSMD versus placebo ([3]; 180 mg, ANCOVA): −4.0
- EEsAI PRO score, Mean ([3]; 180 mg, Week 16): 39.3
- EEsAI PRO score, Median ([3]; 180 mg, Week 16): 49.0
- EEsAI PRO score, LSMD versus placebo ([3]; 180 mg, non-steroid-refractory): 4.9
- EEsAI PRO score, Mean change ([3]; 180 mg, non-steroid-refractory): −20.4
- EEsAI PRO score, LSMD versus placebo ([3]; 180 mg, steroid refractory): −13.5
- EEsAI PRO score, Mean change ([3]; 180 mg, steroid refractory): −19.1
- EEsAI PRO score, Mean ([3]; 360 mg, Baseline): 56.2
- EEsAI PRO score, Median ([3]; 360 mg, Baseline): 58.0
- EEsAI PRO score, Mean change ([3]; 360 mg): −23.0
- EEsAI PRO score, LSMD versus placebo ([3]; 360 mg, ANCOVA): −7.2
- EEsAI PRO score, Mean ([3]; 360 mg, Week 16): 33.2
- EEsAI PRO score, Median ([3]; 360 mg, Week 16): 30.5
- EEsAI PRO score, LSMD versus placebo ([3]; 360 mg, non-steroid-refractory): −1.2
- EEsAI PRO score, Mean change ([3]; 360 mg, non-steroid-refractory): −25.2
- EEsAI PRO score, LSMD versus placebo ([3]; 360 mg, steroid refractory): −15.5
- EEsAI PRO score, Mean change ([3]; 360 mg, steroid refractory): −20.8
- mean EEsAI PRO score in the steroid refractory sub-group ([3]; sub-group analysis, week 16): statistically significant reduction
